Columns and labels:
[1] = target: RNF208 (UniProt Q9H0X6); experiment: anti-Flag co-IP, Myc immunoblot; settings: reference: wild type; sites S39
[2] = target: RNF208 (UniProt Q9H0X6); experiment: anti-Flag co-IP, immunoblot; settings: reference: wild type; sites S39

Substance: Vimentin (from UniProt P08670) S39A
- binding against the reference [1]: lost
- binding against the reference [2]: weaker
